In patent publication US20190352411A1 (ALLIGATOR BIOSCIENCE, published 2019):
Read-outs that look alike come from different tables or passages of the source.

Assays:
[1] = target: T1, cynomolgus CD137 on transfected CHO cells (CHO-cyCD137) (cynomolgus (Macaca fascicularis); human); assay: flow cytometry on CHO-cyCD137 cells; 95% confidence interval of the EC50
T1 construct: extracellular domain;domain: transmembrane and intracellular part; also called cyno CD137

[2] = target: T2, recombinant human CD137-Fc (R&D #838-4B) (human, UniProt Q07011 24-186); assay: ELISA, coated human CD137-Fc
T2 construct: Bought protein coated on ELISA plates; also called CD137 (R&D #838-4B); not shown: Fc part of the commercial fusion protein; not described

[3] = target: cynomolgus CD137 (Acro Biosystems #41B-C52H4) (cynomolgus, UniProt A9YYE7 24-186); assay: Octet (BLI), antibody amine-coupled to ARG2 biosensor, soluble CD137 as analyte, 1:1 model
Description: Materials and method CD137 affinity was determined using the Octet Red 96 platform (ForteBio). […] 7 2-fold serial dilutions of CD137 (Acro Biosystems #41B-H5227 and #41B-C52H4) from 100 nM was prepared in 1× kinetic buffer (ForteBio #18-1092). Association was measured for 180 s followed by dissociation for 180 s in 1× kinetic buffer. 10 mM Glycine pH 2.2 was used for regeneration.
Data generated was referenced by reference well subtraction (1188), the baseline was aligned with the y-axis, inter-step correlation by alignment against association was performed and the data was smoothed by a Savitzky-Golay filtering in the data analysis software (v.9.0.0.14). The processed data was fitted using a 1:1 Langmuir binding model with X² as a measurement of fitting accuracy.

[4] = target: T1, cynomolgus CD137 on transfected CHO …; assay: flow cytometry; EC50 on CHO-cyCD137 against EC50 on CHO-huCD137
Description: (§1) Binding and EC50 was determined using flow cytometric of CHO cells transfected with human CD137, cynomolgus CD137 or empty vector. The extracellular part of human or cynomolgus CD137 was fused to the transmembrane and intracellular part of human CD40 and cloned into pcDNA3.1. The vector was subsequently stably transfected into CHO cells. […] CD137-transfected and empty vector-transfected cells were incubated with CD137 antibodies for at least 1 h at 4° C. to saturate the binding. In order to minimize antibody internalization, 0.05% sodium azide was used in the incubation buffer and all work was performed on ice. The CD137 antibodies were detected using PE-conjugated anti-hIgG antibody (109-115-098, Jackson Immunoresearch laboratories), incubated for 30 min at 4° C. Directly after staining the cells were fixed with a paraformaldehyde solution (10× concentrate BD CellFIX, BD biosciences #340181). Cells were analyzed by flow cytometry using FACSVerse (BD Biosciences). The median fluorescence intensity (MFI) for each sample was determined and the dose response data was analysed using Graph Pad Prism.
(§2) MFI data was normalized for each antibody, where 0% is defined as the lowest value and 100% is the highest value in the dose titration for each antibody.

[5] = target: T1, cynomolgus CD137 on transfected CHO …; assay: flow cytometry on CHO-cyCD137 cells; 95% confidence interval of the EC50; remark: listed apart in the source
Description: as §1, §2

[6] = target: T3, Human CD137 (R&D systems) (human, UniProt Q07011 24-186, limits assumed); assay: SPR (Biacore), human CD137 immobilised, bivalent antibody as analyte, 1:1 Langmuir model
T3 construct: also called CD137 coated on the chip surface
Description: Human CD137 (R&D systems) was immobilized to the Biacore™ sensor chip, CMS, using conventional amine coupling. […] The association was followed for 5 minutes and the dissociation for 15 minutes. Regeneration was performed twice using 10 mM Glycine pH 1.7 for 30 seconds. The kinetic parameters and the affinity constants were calculated using 1:1 Langmuir model.
The affinities of the antibodies were in the nanomolar to sub-nanomolar range (Table 3) measured using bivalent antibodies flowed over CD137 coated on the chip surface.

[7] = target: T2, recombinant human CD137-Fc (R&D #838-4B); assay: ELISA, coated human CD137-Fc; mean
[8] = target: T4, cynomolgus CD137 (ELISA, Example 15) (cynomolgus, UniProt A9YYE7 24-186); assay: ELISA, cynomolgus CD137
T4 construct: Reagent not described; also called cyno CD137

[9] = target: T1, cynomolgus CD137 on transfected CHO …; assay: flow cytometry on CHO cells transfected with cynomolgus CD137, PE anti-hIgG detection, MFI normalised 0-100% for each antibody
Description: as §1, §2

[10] = target: T2, recombinant human CD137-Fc (R&D #838-4B); assay: ELISA, coated CD137 (R&D #838-4B)
[11] = target: T5, human CD137 on transfected CHO cells (CHO-huCD137) (human); assay: flow cytometry on CHO cells transfected with human CD137, PE anti-hIgG detection, MFI normalised 0-100% for each antibody
T5 construct: domain: transmembrane and intracellular part
Description: as §1, §2

[12] = target: T6, CD40-Fc (Ancell #504-820) (human, UniProt P25942 21-193); assay: ELISA, coated CD40-Fc
T6 construct: Coated on ELISA plates; not shown: Fc part of the commercial fusion protein; not described
Description: Binding to TNFR superfamily members for which ELISA methods had already been established (CD40 and OX40) was evaluated to detect potential propensity to cross react to non-target proteins.
ELISA plates (Greiner #655074) were coated with 50 μl/well of recombinant human OX40 (R&D #1493-CD), CD40-Fc (Ancell #504-820) or CD137 (R&D #838-4B) diluted to a final concentration of 0.5 μg/ml in PBS for 1 h at 37° C. or overnight at 4° C. Plates were washed with PBS+0.05% TWEEN20 (PBST), followed by block with PBST+1% bovine serum albumin (BSA). Antibody samples were prepared as serial 1/10 dilutions from 10-0.01 μg/ml in PBST+1% BSA and incubated for 1 h in room temperature, followed by detection using a horse radish peroxidase-conjugated anti-human kappa light chain antibody (AbD Serotec # STAR127P) and developed using SuperSignal ELISA Pico Chemiluminescent substrate (Pierce ThermoScientific #37069).

T1 sequence (P25942 other isoform, or with tags, fused parts or gaps): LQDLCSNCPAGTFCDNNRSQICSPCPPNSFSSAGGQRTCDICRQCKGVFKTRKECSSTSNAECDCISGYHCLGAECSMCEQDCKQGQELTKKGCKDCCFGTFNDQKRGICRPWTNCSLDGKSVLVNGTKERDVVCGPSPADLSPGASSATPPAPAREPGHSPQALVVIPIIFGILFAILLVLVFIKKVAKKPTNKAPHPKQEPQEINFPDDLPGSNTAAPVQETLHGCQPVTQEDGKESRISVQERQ
Sequence of cynomolgus CD137 (Acro Biosystems #41B-C52H4) (A9YYE7 entry or part of it): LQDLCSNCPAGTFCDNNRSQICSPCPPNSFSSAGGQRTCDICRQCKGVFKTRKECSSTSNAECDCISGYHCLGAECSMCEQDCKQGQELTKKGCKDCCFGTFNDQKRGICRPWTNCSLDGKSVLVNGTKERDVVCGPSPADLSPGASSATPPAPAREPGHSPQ
T3 sequence (Q07011 24-186 limits assumed): as the sequence (A9YYE7 entry or part of it) above, with L4P, S19N, K50R, I66T, S67P, Y69F, E75G, A149V counted along it
T2 sequence (Q07011 24-186 limits assumed): as the sequence (A9YYE7 entry or part of it) above, with L4P, S19N, K50R, I66T, S67P, Y69F, E75G, A149V counted along it
T5 sequence (P25942 other isoform, or with tags, fused parts or gaps limits assumed): as the sequence (P25942 other isoform, or with tags, fused parts or gaps) above, with L4P, S19N, K50R, I66T, S67P, Y69F, E75G, A149V counted along it
T6 sequence (P25942 21-193 limits assumed): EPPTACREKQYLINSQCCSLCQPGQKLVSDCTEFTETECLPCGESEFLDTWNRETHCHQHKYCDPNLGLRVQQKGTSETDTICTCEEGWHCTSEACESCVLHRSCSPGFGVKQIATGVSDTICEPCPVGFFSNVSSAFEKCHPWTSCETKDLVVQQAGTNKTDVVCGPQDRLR
T4 sequence (A9YYE7 entry or part of it): as the sequence (A9YYE7 entry or part of it) above

EC50 [1]: 0.12 to 0.16 µg/mL
EC50 [2]: 0.41 nM
Kd [3]: 18 nM
koff [3]: 0.0025 s⁻¹
kon [3]: 140000 M⁻¹ s⁻¹
Ratio, cyno:human [4]: 0.63
EC50 [5]: 0.55 to 0.87 nM
Kd [6]: 0.641 nM
koff [6]: 0.00118 s⁻¹
kon [6]: 1.85e+06 M⁻¹ s⁻¹
EC50 [7]: 0.27 nM
EC50 [8]: 0.85 nM
EC50 (read off the curve) [9]: ~0.1 µg/mL
EC50 [10]: 0.4 nM
EC50 (read off the curve) [11]: ~0.2 µg/mL
B1: 1630/1631 (antibody, human IgG4 S228P, kappa, V domains shown)
VH: EVQLLESGGGLVQPGGSLRLSCAASGFTFGYSYMSWVRQAPGKGLEWVSSIGSGSSYTYYADSVKGRFTISRDNSKNTLYLQMNSLRAEDTAVYYCARVYSSPGIDYWGQGTLVTVSS
VL: DIQMTQSPSSLSASVGDRVTITCRASQSISSYLNWYQQKPGKAPKLLIYAASSLQSGVPSRFSGSGSGTDFTLTISSLQPEDFATYYCQQYYTWVPFTFGQGTKLEIKR
notes: the format in each assay is not restated
binding result [12]: no binding (tested: 10 µg/ml highest concentration tested)
